The source of these data is patent US8986997B2, “Methods and compositions for increasing biological molecule stability” (The Regents of the University of Michigan, priority 2007, dated 2015).

Entries after “also recorded” stand apart in the source; their conditions may differ.

The conditions of data set [1]: wild type protein; in words; cited from earlier work.
In data set [2] the target is T1, colicin E7 (Escherichia coli, UniProt Q47112).
T1 sequence (Q47112 1-576): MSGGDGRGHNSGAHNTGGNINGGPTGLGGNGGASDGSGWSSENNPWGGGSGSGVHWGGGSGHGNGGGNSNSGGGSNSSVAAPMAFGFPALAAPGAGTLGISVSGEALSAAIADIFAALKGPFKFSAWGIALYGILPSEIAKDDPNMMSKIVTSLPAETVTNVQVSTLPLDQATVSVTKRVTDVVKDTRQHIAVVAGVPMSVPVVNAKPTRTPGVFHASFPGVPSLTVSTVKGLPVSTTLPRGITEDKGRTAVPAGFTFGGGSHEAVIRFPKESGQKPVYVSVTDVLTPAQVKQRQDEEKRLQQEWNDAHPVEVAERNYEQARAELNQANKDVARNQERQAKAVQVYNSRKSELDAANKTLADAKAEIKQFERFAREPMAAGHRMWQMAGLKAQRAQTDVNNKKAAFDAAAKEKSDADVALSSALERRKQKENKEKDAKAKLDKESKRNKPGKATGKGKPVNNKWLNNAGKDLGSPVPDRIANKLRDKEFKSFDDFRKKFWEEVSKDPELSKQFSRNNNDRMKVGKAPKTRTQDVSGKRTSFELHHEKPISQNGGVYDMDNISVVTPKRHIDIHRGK
The settings on record: in words; listed as Im7; cited from earlier work.

A short description of data set [3]: Equilibrium unfolding experiments (urea denaturation, folding free energy). The class given is physicochemical. The procedure:
Proteins were dissolved to a concentration of approximately 100 μM in 50 mM Tris-Cl buffer at pH 7.5, containing 400 mM Na2SO4. Substocks of each mutant were made up in the same buffer containing 0, 2, 4, 6 and 8 M urea. These substocks were titrated into a black polypropylene 384 well microtitre plate (Greiner) to create eight replicates of a urea titration from 0 to 8 M urea in steps of 0.2 M urea, using a Hamilton Microlab Star robot. The plates were briefly centrifuged and incubated at 37° C. for one hour to allow the unfolding reaction to come to equilibrium. The tryptophan fluorescence of each sample was measured using a PerkinElmer EnVision platereader. The excitation wavelength was 280 nm and emission was measured using a 340-350 nm filter. Data were normalized and processed using Igor Pro (Wavemetrics). The entire dataset was fitted globally to a two-state equilibrium unfolding equation and the ΔG values for each Im7 variant were compared to that of the wildtype protein under identical conditions. ΔΔGUN=ΔGUN(mutant)−ΔGUN(wildtype)

B1: G-CSF: granulocyte-colony stimulating factor, sold under the trademark names Neopogen and Neulasta (protein, UniProt P09919 31-207, looked up)
Granulocyte …: TPLGPASSLPQSFLLKCLEQVRKIQGDGAALQEKLVSECATYKLCHPEELVLLGHSLGIPWAPLSSCPSQALQLAGCLSQLHSGLFLYQGLLQALEGISPELGPTLDTLQLDVADFATTIWQQMEELGMAPALQPTQGAMPAFASAFQRRAGGVLVASHLQSFLEVSYRVLRHLAQP
On to B1, for which the tendency to aggregate entry in data set [1] is “high tendency to aggregate”.

B2: Wildtype Im7: small helical protein that confers immunity to bacterial colicin E7 (protein)
chain: MELKNSISDYTEAEFVQLLKEIEKENVAATDDVLDVLLEHFVKITEHPDGTDLIYYPSDNRDDSPEGIVKEIKEWRAANGKPGFKQG
With B2, in data set [2], the “affinity for colicin E7” value is “binds very tightly; also recorded: picomolar affinity”.

B3: N26K: Im7 variant more stable than Im7 wt, in Kan55-Im7 (protein)
chain: MELKNSISDYTEAEFVQLLKEIEKEKVAATDDVLDVLLEHFVKITEHPDGTDLIYYPSDNRDDSPEGIVKEIKEWRAANGKPGFKQG
Consider B3, for which, in data set [3], the “stability of Im7 variant relative to Im7 wt” value was “more stable”.
